Test results published in publication PMC32300.

What was measured:
[1] = target: RPTPα-200-XFP (RPTPα-200-CFP and RPTPα-200-YFP); assay: cross-linking
[2] = target: RPTPα-516-XFP (RPTPα-516-CFP and RPTPα-516-YFP); assay: FRET or BRET
RPTPα-P137C [3] = assay: non-reducing SDS-PAGE
RPTPα-P137C [4] = assay: cross-linking
[5] = target: RPTPα-P137C-XFP (RPTPα-P137C-CFP and RPTPα-P137C-YFP); assay: FRET or BRET
[6] = target: full length RPTPα-XFP (RPTPα-CFP and RPTPα-YFP); assay: cross-linking
[7] = target: full length RPTPα-XFP (RPTPα-CFP and RPTPα-YFP); assay: FRET or BRET

Sequence of RPTPα-516-XFP (RPTPα-516-CFP and RPTPα-516-YFP) (P18052 20-829): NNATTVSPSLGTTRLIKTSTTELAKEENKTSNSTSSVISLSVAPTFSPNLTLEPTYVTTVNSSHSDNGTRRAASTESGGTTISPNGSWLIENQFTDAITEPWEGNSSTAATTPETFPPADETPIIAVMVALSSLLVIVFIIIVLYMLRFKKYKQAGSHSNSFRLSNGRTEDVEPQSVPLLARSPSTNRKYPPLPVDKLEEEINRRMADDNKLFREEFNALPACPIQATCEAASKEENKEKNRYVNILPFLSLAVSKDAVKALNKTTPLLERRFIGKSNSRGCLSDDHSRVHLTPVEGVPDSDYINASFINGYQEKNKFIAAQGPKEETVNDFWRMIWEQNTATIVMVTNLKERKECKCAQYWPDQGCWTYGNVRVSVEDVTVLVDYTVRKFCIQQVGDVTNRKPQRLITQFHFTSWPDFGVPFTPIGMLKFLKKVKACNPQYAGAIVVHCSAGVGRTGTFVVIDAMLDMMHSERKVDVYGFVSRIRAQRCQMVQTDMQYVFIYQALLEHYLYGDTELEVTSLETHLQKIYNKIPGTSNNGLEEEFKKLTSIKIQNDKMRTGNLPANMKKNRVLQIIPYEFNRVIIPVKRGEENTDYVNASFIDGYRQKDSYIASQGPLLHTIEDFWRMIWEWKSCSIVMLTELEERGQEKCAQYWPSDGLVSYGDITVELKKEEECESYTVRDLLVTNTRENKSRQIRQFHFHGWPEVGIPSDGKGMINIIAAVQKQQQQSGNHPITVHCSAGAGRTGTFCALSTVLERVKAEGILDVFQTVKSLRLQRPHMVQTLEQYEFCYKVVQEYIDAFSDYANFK
Sequence of RPTPα-200-XFP (RPTPα-200-CFP and RPTPα-200-YFP) (P18052 20-829): as above

Substance: RPTPα-200-XFP (RPTPα-200-CFP and RPTPα-200-YFP) (domain or fragment)
- stoichiometry N [1]: 2

Substance: RPTPα-516-XFP (RPTPα-516-CFP and RPTPα-516-YFP) (domain or fragment)
- F(440)/F(490) ratio [2]: 0.46

Substance: RPTPα-P137C (receptor)
- percent in the dimeric form (RPTPα-P137C [3]): > 80%
- percent cross-linked by BS3 (RPTPα-P137C [4]): < 10%

Substance: RPTPα-P137C-XFP (RPTPα-P137C-CFP and RPTPα-P137C-YFP) (receptor)
- F(440)/F(490) ratio [5]: 0.5

Substance: full length RPTPα-XFP (RPTPα-CFP and RPTPα-YFP) (receptor)
- stoichiometry N [6]: 2
- CFP fluorescence lifetime (τφ) [7]: 2.2 ns
